Reference: patent US20110071283

System: fibrinogen

human thrombin
SDS-PAGE analysis of hydrolysis of fibrinogen (Aα-strand): has a similar strength to human thrombin
